Measurements: patent US20030036642
pKd: −log10 of the molar value.

Biological target: PDGF-AB (A-chain/B-chain heterodimer) (Homo sapiens) (UniProt P04085+P01127)
Test: filter

Sequence of PDGF-AB (A-chain/B-chain heterodimer) (Homo sapiens) (P01127 82-190, chain 2 of 2, other chains not shown): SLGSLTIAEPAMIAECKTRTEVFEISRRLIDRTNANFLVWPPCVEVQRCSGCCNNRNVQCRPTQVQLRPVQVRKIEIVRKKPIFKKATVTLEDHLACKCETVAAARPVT

## GGGAGACAAGAAUAACGCUCAANNNNNNNNNNNNNNNNNNNNNNNNNNNNNNNNNNNNNNNNNNNNNNNNNNUUCGACAGGAGGCUCACAACAGGC [starting random 2'-F-pyrimidine RNA pool]
2'-F all C,U, random 2'-F-pyrimidine RNA, method inferred
  pKd: 7.46

## ATCCGCCTGATTAGCGATACTNNNNNNNNNNNNNNNNNNNNNNNNNNNNNNNNNNNNNNNNACTTGAGCAAAATCACCTGCAGGGG [round 12 affinity-enriched ssDNA pool]
After 12 rounds, apparent Kd
  pKd: 10.30

## ATCCGCCTGATTAGCGATACTNNNNNNNNNNNNNNNNNNNNNNNNNNNNNNNNNNNNNNNNACTTGAGCAAAATCACCTGCAGGGG [starting random ssDNA pool]
  binding signal (fold lower affinity than round 12 pool): 700
